These results are taken from patent publication US20070105771A1 (Y S THERAPEUTICS, published 2007).

Test [1] concerns the target T1, human CD26-derived 13 mer peptide 21 (human).
T1 peptide: VFLENSTFDEFGH
Description: peptide microarray. The method, then: (§1) The overnight incubation was followed by three washings with each of PBS buffer pH 7.5 and water. The microarrays were then scanned using ArrayWorx-Microarray Scanner.
(§2) The SPOT recognition software package ArrayPro was used for data analysis. The mean of signal intensities from 3 identical subarrays on each microarray image was used for data evaluation.

Test [2] addresses T2, human CD26-derived 13 mer peptide 14 (human).
T2 peptide: NNILVFNAEYGNS
The experiment in a line: peptide microarray. On the procedure:
as §1, §2

The target of test [3] is T3, human CD26-derived 13 mer peptide 47 (human).
T3 peptide: RQLITEERIPNNT
The experiment in a line: peptide microarray. On the procedure: as §1, §2

In test [4] the target is T4, human CD26-derived 13 mer peptide 32 (human).
T4 peptide: DGQFILLEYNYVK
Description: peptide microarray. The method, then:
as §1, §2

Test [5] has as its target T5, human CD26-derived 13 mer peptide 114 (human).
T5 peptide: DSLSSVTNATSIQ
Description: peptide microarray. On the procedure: as §1, §2

Test [6] addresses T6, human CD26-derived 13 mer peptide 18 (human).
T6 peptide: EYGNSSVFLENST
Description: peptide microarray. On the procedure: as §1, §2

Test [7] has as its target T7, human CD26-derived 13 mer peptide 45 (human).
T7 peptide: DLNKRQLITEERI
The experiment in a line: peptide microarray. The method, then:
as §1, §2

Test [8] deals with T8, human CD26-derived 13 mer peptide 120 (human).
T8 peptide: QITAPASMLIGDH
The experiment in a line: peptide microarray. On the procedure:
as §1, §2

Test [9] deals with T9, human CD26-derived 13 mer peptide 19 (human).
T9 peptide: GNSSVFLENSTFD
The experiment in a line: peptide microarray. The method, then: as §1, §2

For test [10], the target named is T10, human CD26-derived 13 mer peptide 103 (human).
T10 peptide: VRVPYPKAGAVNP
Description: peptide microarray. On the procedure:
as §1, §2

In test [11] the target is T11, human CD26-derived 13 mer peptide 118 (human).
T11 peptide: ATSIQITAPASML
The experiment in a line: peptide microarray. The method, then: as §1, §2

In test [12] the target is T12, human CD26-derived 13 mer peptide 116 (human).
T12 peptide: SVTNATSIQITAP
The experiment in a line: peptide microarray. On the procedure: as §1, §2

Test [13] concerns the target T13, human CD26-derived 13 mer peptide 26 (human).
T13 peptide: FGHSINDYSISPD
Description: peptide microarray. The method, then:
as §1, §2

The target in test [14] is T14, human CD26-derived 13 mer peptide 71 (human).
T14 peptide: TGKEDIIYNGITD
Description: peptide microarray. The method, then:
as §1, §2

Test [15] concerns the target T15, human CD26-derived 13 mer peptide 9 (human).
T15 peptide: SDHEYLYKQENNI
Description: peptide microarray. The method, then:
as §1, §2

Test [16] deals with T16, human CD26-derived 13 mer peptide 111 (human).
T16 peptide: FFVVNTDSLSSVT
The experiment in a line: peptide microarray. On the procedure: as §1, §2

Test [17] addresses T17, human CD26-derived 13 mer peptide 46 (human).
T17 construct: also called NKRQL1TEERIPN
T17 peptide: NKRQLITEERIPN
The experiment in a line: peptide microarray. On the procedure: as §1, §2

The target in test [18] is T18, human CD26-derived 13 mer peptide 24 (human).
T18 peptide: TFDEFGHSINDYS
The experiment in a line: peptide microarray. On the procedure: as §1, §2

The target in test [19] is T19, human CD26-derived 13 mer peptide 44 (human).
T19 peptide: IYDLNKRQLITEE
Description: peptide microarray. On the procedure: as §1, §2

In test [20] the target is T20, human CD26-derived 13 mer peptide 105 (human).
T20 peptide: YPKAGAVNPTVKF
The experiment in a line: peptide microarray. The method, then: as §1, §2

Test [21] has as its target T21, human CD26-derived 13 mer peptide 25 (human).
T21 peptide: DEFGHSINDYSIS
Description: peptide microarray. The method, then:
as §1, §2

Test [22] addresses T22, human CD26-derived 13 mer peptide 23 (human).
T22 peptide: NSTFDEFGHSIND
The experiment in a line: peptide microarray. The method, then:
as §1, §2

Test [23] has as its target T23, human CD26-derived 13 mer peptide 87 (human).
T23 peptide: GTFLAYAQFNDTE
The experiment in a line: peptide microarray. The method, then:
as §1, §2

The target of test [24] is T24, human CD26-derived 13 mer peptide 27 (human).
T24 peptide: HSINDYSISPDGQ
The experiment in a line: peptide microarray. The method, then:
as §1, §2

Test [25] addresses T25, human CD26-derived 13 mer peptide 22 (human).
T25 peptide: LENSTFDEFGHSI
The experiment in a line: peptide microarray. On the procedure:
as §1, §2

For test [26], the target named is T26, human CD26-derived 13 mer peptide 16 (human).
T26 peptide: VFNAEYGNSSVFL
The experiment in a line: peptide microarray. On the procedure: as §1, §2

Test [27] deals with T27, human CD26-derived 13 mer peptide 119 (human).
T27 peptide: SIQITAPASMLIG
Description: peptide microarray. On the procedure:
as §1, §2

The target in test [28] is T28, human CD26-derived 13 mer peptide 110 (human).
T28 peptide: VKFFVVNTDSLSS
Description: peptide microarray. The method, then:
as §1, §2

The target in test [29] is human CD26 on the cell surface (human, UniProt P27487 1-766). Description: cell-based or functional assay.
Test [30] has as its target T29, Purified recombinant human CD26 (rhDipeptidyl peptidase IV), R&D Systems CAT #1180-SE (human, UniProt P27487 29-766).
T29 construct: Bought recombinant protein; also called hu-CD26; soluble human CD26
The experiment in a line: SPR (Biacore), Fab.

In test [31] the target is T29, Purified recombinant human CD26 …. The experiment in a line: SPR (Biacore), Fab. On the procedure: (§3) Fabs produced in E. coli as described below were diluted in PBS in a concentration of ˜0.5 μM for the assay. A typical recording included a 3 minute period of injection of the Fab followed by a period of 15 minutes of dissociation, and analysis was performed based on the raw data of the binding curves accordingly.
This is another data set of the same source.

Test [32] shares this target. The experiment in a line: SPR (Biacore), CD26 preoccupied by the Fab; competitor 14D10 ascites. The text has this: A specificity analysis of selected Fabs comprising pairs of variant VH and VL sequences was done. […] The analysis was done using Biacore® as described in Example 1.
Test [33] has the same target. Description: SPR (Biacore), CD26 on CM5 chip, Fab injected. The method, then: as §3
Test [34] shares this target. Description: SPR (Biacore), Fab. This is another data set of the same source. On the technique in general: Surface plasmon resonance follows binding to a sensor surface in real time, without labels.
The target is the same in test [35]. Description: SPR (Biacore), Fab. On the procedure: as §3
The CD26 binding partner was as shown below.
The source holds these as a separate data set.

Where “and” joins values, the source holds several entries; their conditions need not be identical. Identical values can stand only once.

T29 sequence (P27487 29-766 limits assumed): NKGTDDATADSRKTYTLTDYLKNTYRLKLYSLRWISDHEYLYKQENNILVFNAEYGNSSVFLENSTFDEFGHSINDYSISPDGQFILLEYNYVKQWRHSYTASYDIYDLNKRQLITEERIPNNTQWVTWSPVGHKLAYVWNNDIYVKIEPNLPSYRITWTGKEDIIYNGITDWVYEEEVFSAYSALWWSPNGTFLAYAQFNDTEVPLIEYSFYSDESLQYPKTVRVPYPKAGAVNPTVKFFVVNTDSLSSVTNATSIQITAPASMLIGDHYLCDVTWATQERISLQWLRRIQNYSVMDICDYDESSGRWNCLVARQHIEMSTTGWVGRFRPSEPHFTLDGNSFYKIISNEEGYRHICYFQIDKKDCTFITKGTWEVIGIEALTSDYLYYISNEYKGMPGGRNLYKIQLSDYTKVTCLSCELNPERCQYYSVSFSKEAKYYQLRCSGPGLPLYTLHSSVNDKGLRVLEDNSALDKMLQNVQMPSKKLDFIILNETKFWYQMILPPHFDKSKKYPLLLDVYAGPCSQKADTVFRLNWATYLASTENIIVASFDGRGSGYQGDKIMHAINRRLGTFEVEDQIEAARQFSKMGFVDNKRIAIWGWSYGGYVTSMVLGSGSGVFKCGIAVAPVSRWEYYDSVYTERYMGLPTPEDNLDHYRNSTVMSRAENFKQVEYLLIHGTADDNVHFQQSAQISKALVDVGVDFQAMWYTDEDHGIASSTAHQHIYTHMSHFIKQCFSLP
human CD26 on the cell surface, sequence (P27487 whole entry): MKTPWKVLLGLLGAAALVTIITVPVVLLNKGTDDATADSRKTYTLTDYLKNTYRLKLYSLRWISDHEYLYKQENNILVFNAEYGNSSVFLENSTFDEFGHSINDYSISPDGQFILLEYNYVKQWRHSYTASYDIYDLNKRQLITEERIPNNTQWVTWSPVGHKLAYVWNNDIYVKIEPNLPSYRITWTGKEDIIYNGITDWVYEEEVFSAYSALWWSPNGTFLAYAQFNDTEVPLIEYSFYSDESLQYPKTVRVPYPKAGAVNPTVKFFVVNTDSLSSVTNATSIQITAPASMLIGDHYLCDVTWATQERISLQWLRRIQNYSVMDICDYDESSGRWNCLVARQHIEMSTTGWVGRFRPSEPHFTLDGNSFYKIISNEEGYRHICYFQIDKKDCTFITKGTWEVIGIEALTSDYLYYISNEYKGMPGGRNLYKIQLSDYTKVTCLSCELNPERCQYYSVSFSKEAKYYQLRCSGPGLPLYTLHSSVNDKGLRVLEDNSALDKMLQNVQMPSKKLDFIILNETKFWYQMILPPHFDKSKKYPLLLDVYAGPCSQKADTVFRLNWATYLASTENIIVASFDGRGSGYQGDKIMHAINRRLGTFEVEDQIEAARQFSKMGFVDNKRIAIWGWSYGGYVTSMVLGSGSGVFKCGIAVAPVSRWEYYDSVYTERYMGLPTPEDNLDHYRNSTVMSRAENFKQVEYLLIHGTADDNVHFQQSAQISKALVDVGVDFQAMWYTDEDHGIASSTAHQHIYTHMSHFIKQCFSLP

B1: rhuMAb 420 (antibody, human IgG1, V domains shown)
VH: EVQLVESGGGVKQPGETLRLTCTASGFSLSTYGVHWVRQAPGKGLEWVGVIWGDGRTDYDAAFMSRVTISKDTSKSTVYLQMNSLRAEDTAVYYCMRNRHDWFDYWGQGTTVTVSS
VL: EIEMTQSPSSLSVSAGERATISCSASQDIRNSLNWYQQKPGQAPRLLIYYSSNLHTGVPARFSGSGSGTDFTLTISRLEPEDVAIYYCQQSNKLPLTFGSGTKVEIKR
notes: X420 VH and X380 VL with human IgG1 and human kappa constant regions; also called X420 (IgG1)
Turning to B1, the “Mean Signal Value” in test [1], in test [2], in test [3], in test [4], in [5] and in test [6] was 0 each time. In addition, the “Mean Signal Value” in test [7], in test [8], in test [9], in [10], in [11] and in test [12] was 0 throughout. Besides, the “Mean Signal Value” in test [13], in [14], in test [15], in [16], in [17] and in test [18] was 0 each time. Moreover, the “Mean Signal Value” in test [19], in test [20], in test [21], in test [22], in test [23] and in [24] was 0 each time. For the same molecule, the “Mean Signal Value” in test [25], in test [26], in test [27] and in test [28] was 0 throughout. The “percent inhibition, MTT assay, Jurkat CD26+ cells, 0.05 ug/ml” value in test [29] was found to be 3.7%. Moreover, the “percent inhibition, MTT assay, Jurkat CD26+ cells, 0.25 ug/ml” value in [29] was 9.6%. Also, the “percent inhibition, MTT assay, Jurkat CD26+ cells, 0.5 ug/ml” value in test [29] was determined as 9.2%. Moreover, in [29], the “percent inhibition, MTT assay, Jurkat CD26+ cells, 2.5 ug/ml” value is 16.6%. Further, the “percent inhibition, MTT assay, Jurkat CD26+ cells, 5 ug/ml” value in [29] is 15.9%.

B2: CM03 Fab X369 (Fab, V domains shown)
VH: QVKLQESGPGLVQPSQTLSITCTVSGFSLTTYGVHWVRQSPGKGLEWLGVIWGGGRTDYDAAFISRLSISKDNSKSQVFFKMNSLQANDTAIYYCVRNRHDWFDYWGQGTTVTVSS
VL: DIQMTQSPSSLSASLGDRVTITCSASQGIRNSLNWYQQKPDGAVKLLIYYSSNLHSGVPSRFSGSGSGTDFSLTISNLEPEDIATYYCQQSIKLPFTFGSGTKLEIK
notes: Recombinant Fab made in E. coli; also called CM03 X369; CM03 (X369)
For the molecule B2, the Kd (usually the free concentration of one partner at which half of the binding sites on the other are occupied at equilibrium, for simple one-to-one binding) in test [30] is 1.63 nM; in [31] it was 1.63 nM; in [33] it was 1.63 nM; in test [34], 1.63 nM and 1.6 nM; in test [35], 1.63 nM. The “percent decrease in binding of 14D10 to CD26” value in [32] was no less than 80%.
